Experimental data as given in patent US10017787B2, “Production of alkenes from 3-hydroxycarboxylic acids via 3-hydroxycarboxyl-nucleotidylic acids” (Global Bioenergies, priority 2013, dated 2018).

What was measured:
(R,S)-3-hydroxybutyrate [1] = assay: Adenylation of 3-hydroxybutyrate with ATP or ADP as co-substrates, spectrophotometric assay; assay type: biochemical; conditions: 5 mM (R,S)-3-hydroxybutyrate, 0-3.2 mM ATP or ADP, 0.1 mg/ml enzyme (FIGS. 15 and 16)
Protocol: Spectrophotometric assay was performed according to the procedure described in Example 2. The specificity of acyl-CoA synthase from M. algicola and AMP-dependent synthetase/ligase from Burkholderia sp. with respect to co-substrates was analyzed. Standard reaction contained:
0.1 mg/ml of purified enzyme
2-amino-6-mercapto-7-methylpurine ribonucleoside (MESG), purine nucleoside phosphorylase (PNP) and inorganic pyrophosphatase were added to the reaction mix according to the procedure described in the EnzCheck® Pyrophosphatase Assay Kit. A reaction mixture without inorganic pyrophosphatase was used for assays with ADP as co-substrate. Control assays were performed in which either no enzyme was added, or no 3-hydroxybutyrate was added. Each assay was started with the addition of co-substrate (ATP or ADP). Each sample was continuously monitored for the increase of 2-amino-6-mercapto-7-methylpurine at 360 nm on a SpectraMax Plus 384 UV/Vis Microplate Reader (Molecular Devices).

[2] = substrate: CC[C@@H](O)CC(=O)O; assay: Kinetic parameters of adenylation of 3-hydroxycarboxylates, continuous spectrophotometric diphosphate release assay; assay type: biochemical, Marinobacter aquaeolei; conditions: other: 0-10 mM 3-hydroxycarboxylate, 2 mM ATP, 0.1 mg/ml enzyme, pH 7.5
Protocol: (§1) The genes coding for the adenylate-forming enzymes were synthesized and the corresponding enzymes were further produced according to the procedure described in Example 1. 3-hydroxypropionic acid (TCI) stock solution was prepared in water with the pH adjusted to 7.5 with 1 M NaOH. The release of diphosphate which is associated with 3-hydroxypropionyl-adenylate formation from 3-hydroxypropionate was quantified using the EnzCheck® Pyrophosphatase Assay Kit (E6645, Life Technologies).
(§2) In this assay, diphosphate was hydrolyzed to inorganic phosphate by inorganic pyrophosphatase and phosphate production coupled to phosphorolysis of the 2-amino-6-mercapto-7-methylpurine ribonucleoside (MESG), catalyzed by the enzyme purine nucleoside phosphorylase (PNP). The chromophoric product, 2-amino-6-mercapto-7-methylpurine, was monitored by absorbance at 360 nm (FIG. 9).
(§3) Kinetic parameters were determined by using the spectrophotometric assay described in Example 2. Reaction mixture for the assay of adenylation activity contained:
(§4) 0-10 mM 3-hydroxycarboxylate
(§5) 0.1 mg/ml of purified AMP-dependent synthetase/ligase from M. aquaeolei
(§6) 2-amino-6-mercapto-7-methylpurine ribonucleoside (MESG), purine nucleoside phosphorylase (PNP) and inorganic pyrophosphatase were added to the reaction mix according to the procedure described in the EnzCheck® Pyrophosphatase Assay Kit.

[3] = substrate: O=C(O)CCO; assay: as above; assay type: biochemical, Marinobacter aquaeolei; conditions: other: 0-10 mM 3-hydroxycarboxylate, 2 mM ATP, 0.1 mg/ml enzyme, pH 7.5
Protocol: as §1, §2, §3, §4, §5, §6

[4] = substrate: C=CC(O)CC(=O)O; assay: as above; assay type: biochemical, Marinobacter aquaeolei; conditions: other: 0-10 mM 3-hydroxycarboxylate, 2 mM ATP, 0.1 mg/ml enzyme, pH 7.5
Protocol: as §1, §2, §3, §4, §5, §6

3-hydroxyisovalerate = assay: Isobutene production from 3-hydroxyisovalerate, M. aquaeolei enzyme and OleC proteins, GC-FID; assay type: biochemical; conditions: 50 mM 3-hydroxyisovalerate, 10 mM ATP, 0.6 mg each enzyme in 0.3 ml, 18 hours at 37° C.
Protocol: The studied reaction was carried out under the following conditions
Reaction volume was 0.3 ml
(§7) 0.6 mg of AMP-dependent synthetase/ligase from M. aquaeolei and 0.6 mg of OleC protein were added to 0.3 ml of reaction mixture. A reaction mixture containing only 0.6 mg of AMP-dependent synthetase/ligase from M. aquaeolei was used as reference. The assays were incubated in 2 ml sealed vials (Interchim) for 18 hours at 37° C. with shaking. Isobutene production was analyzed by Gas Chromatography (GC) using Bruker 450-GC gas chromatograph equipped with Flame Ionization Detector (FID). Nitrogen was used as carrier gas with a flow rate of 6 ml/min. Volatile compounds were chromatographically separated on GS-Alumina column (30 m×0.53 mm ID) (Agilent) using an isothermal mode at 130° C. The enzymatic reaction product were identified by comparison with standard of isobutene (Sigma-Aldrich), the retention time of isobutene in these conditions was 2.40 min.

[5] = substrate: CC(O)CC(=O)O; assay: purified protein, by the assay type; conditions: other: 0-10 mM 3-hydroxycarboxylate, 2 mM ATP, 0.1 mg/ml enzyme, pH 7.5
[6] = substrate: CC(C)(O)CC(=O)O; assay: purified protein, by the assay type; conditions: other: 0-10 mM 3-hydroxycarboxylate, 2 mM ATP, 0.1 mg/ml enzyme, pH 7.5
(R,S)-3-hydroxybutyrate [7] = assay: Propylene production from 3-hydroxybutyrate, M. aquaeolei enzyme and OleC proteins, GC-FID; assay type: biochemical; conditions: 50 mM (R,S)-3-hydroxybutyrate, 10 mM ATP, 2 mg/ml each enzyme, 18 hours at 37° C.
Protocol: The studied enzymes were produced and purified according to the procedure described in Example 1. The studied reaction was carried out under the following conditions
2 mg/ml purified AMP-dependent synthetase/ligase from M. aquaeolei
2 mg/ml purified OleC protein from Shewanella amazonensis or from Chloroflexus aurantiacus
Reaction volume was 0.3 ml.
For the no enzymes control, buffer was used in place of enzymes.
Controls reactions without ATP were realized in parallel.
as §7, with “The” for “0.6 mg of AMP-dependent synthetase/ligase from M. aquaeolei and 0.6 mg of OleC protein were added to 0.3 ml of”, “mixtures” for “mixture. A reaction mixture containing only 0.6 mg of AMP-dependent synthetase/ligase from M. aquaeolei was used as reference. The assays”, “Propylene” for “Isobutene”, “propylene” for “isobutene”, “1.57” for “2.40”

Molecule	formation of 3-hydroxybutyryl-adenylate with ATP or ADP as co-substrate ((R,S)-3-hydroxybutyrate [1])	Km [2] [mM]	kcat [2] [s⁻¹]	Km [3] [mM]	kcat [3] [s⁻¹]	Km [4] [mM]	kcat [4] [s⁻¹]	Isobutene peak area (3-hydroxyisovalerate) [arbitrary units]	Km [5] [mM]	kcat [5] [s⁻¹]	Km [6] [mM]	kcat [6] [s⁻¹]	Propylene peak area ((R,S)-3-hydroxybutyrate [7]) [arbitrary units]
acyl-CoA synthase from M. algicola: acyl-CoA synthetase from Marinobacter algicola, SEQ ID NO: 2, Uniprot A6EZ54 (protein, Marinobacter algicola DG893) MNSIFDKGLEPTDANNATLTPLDFLARTASVYPEYPAVIHGATRRNWQQTYERCRRLASALADRGVGKGDTVAAMLPNIPPMLECHFGIPMLGAVLNALNTRLDAKAIAFMLEHGEAKVLIADREFGDVINEAVGMLDNPPQVIDVNDPEFSGAGTQVSDLDYDAFVASGDPAFDWQMPADEWDAISLCYTSGTTGNPKGVVYHHRGAYENAMGNQAVWSMGMHPVYLWTLPMFHCNGWCFPWTITAFAGTHVCLRKVEPEKILQLISEHKVSHMCGAPIVLNTLLGASEAAKSSFSHTVQAMTAGAAPPAKVIEAIENMGFRVTHVYGLTEVYGPVTVCAWKSEWDDLPVEDRARIKARQGVRYHTLAGMMVGDPETMEAVPKDGNTIGEIFLRGNTVMKGYLKNPKATEEAFRGGWFHTGDLAVWHADGYAEIKDRLKDIIISGGENISTIEVEDVLYRHPDILEAAVVARPDEKWGETPCAFVTLKPEAGEVSEDDIIAFCRERMAKFKVPKTIVFSELPKTSTGKIQKFVLRDDAKKL	able to catalyze the formation of 3-hydroxybutyryl-adenylate by using ATP or ADP as co-substrate	–	–	–	–	–	–	–	–	–	–	–	–
AMP-dependent synthetase/ligase from Marinobacter aquaeolei (Marinobacter nauticus VT8) (protein) MTSIFDQGLEPRDANYAVQSPIDFIERTASVYPDYPAIIHGAIRRTWAETYDRCLRLASALKGRGIGRGDTVAVMLPNIPAMVECHFGIPMIGAVLNTLNVRLDAEAIAFMLEHGEAKVVIADREFGQVIKDAVRHLEHKPLVIDVDDPEYGEGVQVSDLDYEAFLQEGDPQFQWSFPDNEWDAISLNYTSGTTGNPKGVVYHHRGAYINALGNQTVWSMDMHPVYLWTLPMFHCNGWCFPWTITAMAGTHVCLRRVDPEKILQLIHDHQVTHMCGAPIVLNALLNASPEAKAGIDHEVKSMTAGAAPPAQVIGSIEEMGIKVTHVYGLTEVYGPVTVCAWKSEWDELPLHDRAKIKARQGVRYHTLGGTMVADPNTMQPVPKDGKTIGEIFLRGNTVMKGYLKNPTATEEAFRGGWFHTGDLAVWHEDGYMEIKDRLKDIIISGGENISTIEVEDTLYRHPAVLEAAVVARPDEKWGETPCAFITLKPEAGDVSEDDIINFCREHLARFKVPKTVVFTELPKTSTGKIQKFVLRDQAKDLN	–	4	0.012	5	0.04	3	0.023	414	2	0.03	10	0.007	0
AMP-dependent synthetase/ligase from Burkholderia sp.: AMP-dependent synthetase and ligase of Burkholderia sp., SEQ ID NO: 4, Uniprot R4WRJ4 (protein, Burkholderia sp. RPE64) MTHSEEIMTTPGIYDEGLPKTAANFAVMTPLTFIERAASVYPNRPAVVHGDVRRTWSETYARTRRLASALAARGIGVGDTVAVMLPNTPEMVEAHFGVPMTGAVLNALNTRLDAATLAFMLTHGEAKAVLVDREFSDVMRRALESVPQKLLVIDVDDSQYAGAGERIGEIEYEALLASGDPAYEWTPPSDEWNAICLNYTSGTTGNPKGVVYHHRGAYTNAVSNILEWDMPAHAVYLWTLPMFHCNGWCFPWTIAARAGVNVCLRRIDAKTVFDLIRNEGVTHYCGAPIVQNMLVNAPDELKAGIAQKVNAMVAGAAPPAAMIEGMERMGFQLTHVYGLTEVYGPATVCAHQAEWSELDIGERARLNARQGVRYHLQDAVTVRDPDTMQLVPPDGETIGEIMFRGNIAMKGYLKNAAATEEAFRGGWFHTGDLAVAYPDGYVRIKDRSKDIIISGGENISSIEVEDVLYRHPAVLAVAVVAKPDARWGETPCAFVELKTGVHVSGEELIAHCKQHLAGFKVPRAIEFCELPKTSTGKIQKFELRKRAGSVTAIDV	able to catalyze the formation of 3-hydroxybutyryl-adenylate by using ATP or ADP as co-substrate	–	–	–	–	–	–	–	–	–	–	–	–
